According to publication PMC7468209, “The Nucleoid Occlusion Protein SlmA Binds to Lipid Membranes” (mBio, 2020):

Molecular target: the molecule itself
Assay: AUC; sedimentation velocity, 5 uM SlmA without SBS, working buffer (50 mM Tris-HCl pH 7.5, 5 mM MgCl2) with 100, 300 or 500 mM KCl, 48,000 rpm, 20 C, absorbance at 230 nm, c(s) in SEDFIT

B1: SlmA (natural protein, E. coli, UniProt P0C093 1-198, looked up)
chain: MAEKQTAKRNRREEILQSLALMLESSDGSQRITTAKLAASVGVSEAALYRHFPSKTRMFDSLIEFIEDSLITRINLILKDEKDTTARLRLIVLLLLGFGERNPGLTRILTGHALMFEQDRLQGRINQLFERIEAQLRQVLREKRMREGEGYTTDETLLASQILAFCEGMLSRFVRSEFKYRPTDDFDARWPLIAAQLQ
modifications: Alexa Fluor 488 on amino groups (0.3-0.6 mol dye per mol protein), only in the tracer fraction (1 uM of 5 uM) of the microdroplet experiments; unlabelled in the sedimentation velocity experiments
notes: SlmA, nucleoid occlusion protein of Escherichia coli; also called nucleoid occlusion protein SlmA; nucleoid occlusion factor SlmA
stoichiometry N: 2
